This note sets out measurements from paper doi:10.1101/2022.03.30.486221 (bioRxiv, 2022).

The data set deals with the molecule itself. Description: SEC. (In general: Size exclusion chromatography separates by hydrodynamic size, large species first.)

B1: recombinant His6-tagged StTGA2.1 (natural protein, UniProt A0A9F1U434 1-270, looked up)
chain: MDAMGDREGPRLVSSTALWRGDRRPAQVVQVSQLEQDFQRAPQQRESGSLPFDTEYSRWLEEHTKHINELRTAVNSHASDPELRSMVDSVIAHYDEVYRMKANAAKGNVEHLLSGMWKTPAERCSMWIGDFRPSLLLKLLVNQVEPLTEQQLIGIVNLQQSSQQAEDALSQDMEAWQQSLEVTLAYGSLATEGSSGDAAYNISQMAMAMGILGTLEGFLRQADNLRQQTLQQMHRMLTTRQSARALLAISEYFSRLRALSSLWLARPREQ
In general, stoichiometry N refers to a count of units in the complex or per binding partner. As to B1, the “stoichiometry N” value was determined as 2.
